Measured values as given in the supplement of paper PMC12764529.
± gives the half width of the 95% confidence interval.

Experiment: folding stability dG unfold (combined trypsin and chymotrypsin); higher = more stable
Summary of the method: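 Designed mini-proteins with no cysteine and under 80 residues were kept only if AlphaFold2 dimer inter-PAE was above 15. In a PA-tagged cDNA display construct, they were digested with trypsin and chymotrypsin and then sequenced. K50 was inferred by Bayesian fitting of counts, and unfolding free energy was derived per protease or combined against a sequence-predicted unfolded-state K50 and a shared folded-state K50.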

Sequence	folding stability dG unfold [kcal/mol]
SAGGGSMVEKTISTTDPKYVKILKKLEEAPEDEVVTIKEPNKDIEVLSFDKVDDNYKLLMKLPPSILSAGGS [r16_404_JUSTAS]	-0.773 ± 0.46
SAGGSAGGSAPFENLPEDAKEVEITFDPSLSEEVRKALAEELKPRIEAQGIKYKFKIVPKSNLSAGGSAGGS [r12_456_JUSTAS]	< -1
SAGGSAGGSAGGMNTPIVVETEDLPSSRPVEEVKAEAAPKGYTEVKAYPDGTVVITKVRSSAGGSAGGSAGG [r11_961_JUSTAS]	0.164 ± 0.21
SAGGSAGGSAGGPNWRIITHEIPIKDGEIEINLPEGIKPQSIERNPDDGYIKVSIVIPLSAGGSAGGSAGGS [r10_906_TrROS]	-0.54 ± 0.15
SAGGSAGGMVITFTAPDGTPLGTVEVELPPNNPEAEEEARELAEALRAELEEAGRPVAATVEPASAGGSAGG [r6_884_JUSTAS]	0.309 ± 0.14
SAGGMGVRVEEKVLATSESSTPDGTPVTFTETETKITLPPGTVVTVKKLLETGGGGRKVLEETTSPLASAGG [r13_898_JUSTAS]	-0.295 ± 0.14
SAGMTPEDLKNGKPVKVPIPIPIRDPDGKPWAEIPIKGPMPVKDIMEVIETIREIARELKIPPSDGDKNSAG [r5_606_TrROS]	< -1
SAGGSAGGSAGGPPTTARITLPDGRTYTVPVPVDPTTGTVYVEDIRRAVAPNYTFTIELGSAGGSAGGSAGG [r7_492_TrMRF]	0.414 ± 0.14
SAGGSASMRTVTLTSTETLELKDPSGNLRVETTPVVVTVPVEVPDPNLPPPAVNSPVLTELLLRLLSAGGSA [r15_728_JUSTAS]	0.0436 ± 0.084
SAGGSAGGSDPTYVEVRTLAGPAGPTRVLIRPSSGEWLEAEFPVDRPVVFFVPADVEVEVLPDSAGGSAGGS [r12_517_TrMRF]	0.0902 ± 0.054
SAGGSAGGMTIKELLKEGVPFKIEMYGPNNGEPREFKIPPGESIDDILENMPFPPGMQIRIEPKSAGGSAGG [r6_232_TrROS]	-0.142 ± 0.42
SAGGSAGGGASTRRTITVPYEDPEEAFEKVKEEVKAETGKPTEVTLTEIDPNNPGVITVEVTVSSAGGSAGG [r6_211_JUSTAS]	0.351 ± 0.07
RTISIDEIREKLGMDPDDLKNMPMEEIADEIRDELPPGRAKGVKISPNEDDGMWTITVKYKNGRPVEITIDS [r1_340_TrROS]	0.156 ± 0.37
SAGGSAGGSAGGSSTITLDPANPTVVTDPATGVPTTGVSLAELEKLGMKPAGPDAYVVLSAGGSAGGSAGGS [r4_306_JUSTAS]	< -1
SAGGSSAEELAEALKKKLEELGLEIKELELKVKKVKVEEKPKPKVELKEEKVEVKEKKFYSEEEKKSAGGSA [r2_384_TrROS_Hall]	< -1
SAGGSAGGSAGGSMTVTETRYVGTDPATGVATTLSTYRDASGTPGLVTTYPGGAVTVALSAGGSAGGSAGGS [r4_35_JUSTAS]	-0.312 ± 0.28
SAGGMLSRESTDPGPGRRTLTREEPLPDGTVPVTVTTESPDPSVTTVETRLVFPGPAVETPTRTAAPSAGGS [r16_684_JUSTAS]	0.281 ± 0.052
SAGGSAGGSVYLDPAVLAELEALRQAGLRVAEVREERVEVEGGPPRRVDVRAVVVDLPPEALAASAGGSAGG [r6_771_JUSTAS]	-0.11 ± 0.18
SKTVVIAADPNNPEAIKKAIEEAPPDTTIVIVVPLENGEYPKVTITRKPPEVPPIPPELLSEEEIKELLPSA [r9_1103_TrMRF]	0.42 ± 0.14
SAGGSAGGMPVVVETRPDPETGNEIVRITVPKPNYTLVLRRDSQGKETLLAEIGPYTPDDPGLLSAGGSAGG [r6_149_JUSTAS]	-0.00962 ± 0.23
SAGGMITLEEPELDPSRPVTRVKVLTEIPAPGGVPVVVETTYTDTRAPGDPSVTVVTSTTTVVPGAAGSAGG [r13_131_JUSTAS]	-0.834 ± 0.27
SAGGKARITRIEAEPDPLRVEVEVELPDGRKVRAVAVVPPGEGGVARVRTAVDFGEGVVPAADIEIPPSAGG [r13_728_TrMRF]	0.236 ± 0.052
SAGGSAGGSAGVKRIKDVRNPNGNKIRDVEVEEENDPNGNKYLTIKARHKNGNEQEHTLPSAGGSAGGSAGG [r11_810_TrROS]	-0.18 ± 0.75
SAGPITPEEIQEKVTKAMEEEGMDNVNVDVQRDEDNGRITIQVEVQMPPGNKEKAQRIQDAIQDELGIKSAG [r5_9_TrROS]	0.277 ± 0.099

Sequence	folding stability dG unfold [kcal/mol]
SAGGSAEIEPVSSEVDPNSDRTVTTNRIPGSGKTRTVTYDSSNPGVTTVTTYAPGGKPLSTTTLPTSAGGSA [r15_974_JUSTAS]	< -1
SAGSVSLPPGAVLTEERKLPDGSLVRTTTTVSPVPELPVDRIETTTEFYAPGGEKIGTETSSSLRPPGESAG [r5_787_JUSTAS]	-0.493 ± 0.35
SAGGSAGGSPNQDFKVKVKIKEFNPGNGHIRIDVEVEGDNPQVQDFAKGIAEGFGFPVEVEPISAGGSAGGS [r20_157_TrROS]	-0.0925 ± 0.14
SAGGSAGGSAGGDPDLPVYSVSPTTIPAPPGQDSPTPGPNSVTVDANGTATVTETSVSLVSAGGSAGGSAGG [r7_556_JUSTAS]	< -1
SAGGSAGGSAGMLSVTELSTEEKGSLVTTTTRATVGSTTVTTTTTTFVPRSTALLNPDRGSAGGSAGGSAGG [r11_213_JUSTAS]	-0.0509 ± 0.48
SAGVKIERDPNPGWMEITYPIDNKPIQIEIPMDPNNGQMKVKVEYGDGKPKEYTIPGGSIEEIIEDLFSAGG [r19_159_TrROS]	< -1
SAGGEEPKRKTVEVPAGQPISELLDALKQYDEVQIRMGNGEEHEIPPNDPPDLEDLPLPPGNTFEIEVSAGG [r13_399_TrROS]	< -1
SAGGSAGGSAGGLKELADKLNPGFEIRVENIEPTPGPVRINVRAPNEGVPRSIPIDPDDISAGGSAGGSAGG [r7_303_TrROS]	0.479 ± 0.043
SAGGSAGGSAGGKRRIQIPPDDPGMTAEQLADRLQKEFPENGVPVEITNIDDYGYIEIESAGGSAGGSAGGS [r10_579_TrROS]	0.443 ± 0.088
SAGWDLKIEPEPNPDNGMRMINIEYEDPDGDGPYTVSIMYHNGKIKAVEVQDPNTGEPELTPEALEELFSAG [r5_872_TrROS]	-0.305 ± 0.49
SAGGSSLPPEYTVTEVEREFTTPEDVAEARAAAEAAAAAGAEVLEVTVERPEDGSYRVRFTLATPRSAGGSA [r2_350_JUSTAS]	0.0151 ± 0.24
SAGGGAMLVGETTTSKWIEKTIRNENGEVETKKVKVTTKPVTYKLPDGTLATETKVTIIYPDGSTKEESAGG [r13_113_JUSTAS]	-0.181 ± 0.31
SAGGSAGGSAGNISSLPPTPITGSSLKRFVVKRPDGTEEEVTLEITYYPETGKEIISTIKSAGGSAGGSAGG [r11_1024_JUSTAS]	-0.0512 ± 0.21
SAGGSAGGSAGGSPVIFVDPVEGRARVLLAAPAPNPDGEPGGLGLAEVEFEVGDVRLLLSAGGSAGGSAGGS [r4_10_TrMRF]	-0.00848 ± 0.12
SAGGSAGGSAGGLPPGQKYVIKMYNPNGKRQEHEFEIPPGEPFKDFEFPNGWRYDIYPVKSAGGSAGGSAGG [r7_132_TrROS]	-0.321 ± 0.42
SAGGSAGGSGMSSTSTTTVEIEKDPSTGKVLKKTVTSPTTTLAPGGEWTTTVSTSTEEISPDLSAGGSAGGS [r12_629_JUSTAS]	-0.237 ± 0.4
NIRFPDGREIEIPPEPGEEYEIMLPNGPEIKIKKIKYENGEPTIEIERKDGGKKEHEMPPNQPDQILDAIRS [r1_66_TrROS]	0.0319 ± 0.29
SAGAVSTFENSNPSISLEELKEKIEEKLGIELVELKKVEDVPGGLKYEIVVPKIKGEKPFSAEEIAKLLSAG [r5_550_JUSTAS]	-0.434 ± 0.56
SAGGSAGGSAGGGMTTTYTTETIEAPDGTVVIKKTTTYDYGNGSLTKPTIYNPDGTPIGSAGGSAGGSAGGS [r10_1056_JUSTAS]	-0.188 ± 0.12
SAGGSAGGKTKVKGTLIGPNGPPVEVEGEALLPDGREYDVHIDAVLLPDPEGEPTVVVKVEVKPSAGGSAGG [r6_334_TrMRF]	-0.127 ± 0.23
SAGDISPSDPVTVRVEVEKDPNSKSTLVRVDEETPTGRRLERRIPADGPVVVTEREPASGATRVTVEPASAG [r5_55_JUSTAS]	-0.563 ± 0.11
SAGSVTRSFPSGSSVSAETDPETNTITISTSPSSGQLVAQLPTAGEKVVPVSDRDLEEAAKEAAEALLSSAG [r5_447_JUSTAS]	-0.854 ± 0.32
SAMDLSTLPPSTSVTPSTSSLPGNLSRSTYTLTTRDPETGALTVTTVTTYTDPSSSSTTVTPSTTLLPASAG [r14_307_JUSTAS]	0.00104 ± 0.15
